Reference: publication PMC9482650, “Quantitative fragmentomics allow affinity mapping of interactomes” (Nature Communications, 2022)

T1: CARD11, Q9BXL7
T1 sequence (Q9BXL7 662-765, limits assumed, looked up): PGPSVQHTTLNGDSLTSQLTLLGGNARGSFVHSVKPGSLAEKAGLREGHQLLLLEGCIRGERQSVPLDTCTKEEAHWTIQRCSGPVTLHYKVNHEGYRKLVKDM

T2: SIPA1L2, Q9P2F8
T2 sequence (Q9P2F8 945-1036, limits assumed, looked up): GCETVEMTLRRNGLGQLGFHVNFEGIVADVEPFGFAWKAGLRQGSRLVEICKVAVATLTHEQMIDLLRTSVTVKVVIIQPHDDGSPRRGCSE

T3: DLG3_1, Q92796
T3 sequence (Q92796 125-227, limits assumed, looked up): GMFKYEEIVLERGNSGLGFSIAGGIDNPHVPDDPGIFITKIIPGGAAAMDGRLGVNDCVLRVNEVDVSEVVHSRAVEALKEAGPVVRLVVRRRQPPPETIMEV

T4: SNTA1, Q13424
T4 sequence (Q13424 82-180, limits assumed, looked up): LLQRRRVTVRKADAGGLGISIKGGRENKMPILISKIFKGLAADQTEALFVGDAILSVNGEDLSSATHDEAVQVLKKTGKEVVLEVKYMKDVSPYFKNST

T5: GRIP1_5, Q9Y3R0
T5 sequence (Q9Y3R0 568-668, limits assumed, looked up): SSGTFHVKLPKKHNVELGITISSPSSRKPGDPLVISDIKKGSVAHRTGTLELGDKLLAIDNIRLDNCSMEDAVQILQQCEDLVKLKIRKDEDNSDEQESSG

T6: SYNJ2BP, P57105
T6 sequence (P57105 8-110, limits assumed, looked up): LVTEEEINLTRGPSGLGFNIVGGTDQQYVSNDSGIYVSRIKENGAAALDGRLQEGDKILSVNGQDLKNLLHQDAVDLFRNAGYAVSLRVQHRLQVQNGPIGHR

T7: APBA3_1, O96018
T7 sequence (O96018 389-490, limits assumed, looked up): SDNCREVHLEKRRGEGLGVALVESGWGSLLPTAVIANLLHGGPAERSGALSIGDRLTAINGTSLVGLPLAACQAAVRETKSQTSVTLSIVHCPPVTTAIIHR

T8: TJP3_3, O95049
T8 sequence (O95049 375-456, limits assumed, looked up): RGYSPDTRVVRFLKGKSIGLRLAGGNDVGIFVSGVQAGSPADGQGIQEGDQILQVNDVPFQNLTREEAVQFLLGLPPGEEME

T9: SHANK1, Q9Y566
T9 sequence (Q9Y566 658-767, limits assumed, looked up): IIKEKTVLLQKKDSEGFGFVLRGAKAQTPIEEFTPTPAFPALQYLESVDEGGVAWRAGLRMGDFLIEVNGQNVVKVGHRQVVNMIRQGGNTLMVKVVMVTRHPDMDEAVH

T10: APBA2_2, Q99767
T10 sequence (Q99767 654-744, limits assumed, looked up): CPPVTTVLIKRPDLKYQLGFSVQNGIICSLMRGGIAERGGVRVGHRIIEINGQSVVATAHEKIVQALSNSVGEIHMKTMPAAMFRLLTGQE

T11: SNTB1, Q13884
T11 sequence (Q13884 107-205, limits assumed, looked up): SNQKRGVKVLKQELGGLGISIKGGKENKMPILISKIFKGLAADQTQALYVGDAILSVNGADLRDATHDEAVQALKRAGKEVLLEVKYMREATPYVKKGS

T12: PDZD7_3, Q9H5P4
T12 sequence (Q9H5P4 857-944, limits assumed, looked up): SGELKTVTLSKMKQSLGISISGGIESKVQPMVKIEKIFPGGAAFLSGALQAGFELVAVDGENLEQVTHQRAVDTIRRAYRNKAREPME

T13: DVL3, Q92997
T13 sequence (Q92997 244-331, limits assumed, looked up): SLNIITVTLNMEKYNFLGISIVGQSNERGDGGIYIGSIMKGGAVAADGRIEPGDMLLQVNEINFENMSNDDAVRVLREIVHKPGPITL

B1: AQP6, Q13520 (peptide)
chain: GSGAVEMESV
B2: TRAF2, Q12933 (peptide)
chain: IKAIVDLTGL
B3: BANF1, O75531 (peptide)
chain: CLREWCDAFL
B4: ERBB4, Q15303 (peptide)
chain: PPYRHRNTVV
B5: HCN2, Q9UL51 (peptide)
chain: SARSRLSSNL

Biological target: MAGI2_5, Q86UL8
Experiment: holdup assay
Design: key: below the threshold = too weak to quantify, mostly under pKd 3.1 to 4
Conditions: plain residues with an end cap or a label only (N-terminal biotin on a linker: ado-ado)

MAGI2_5, Q86UL8, sequence (Q86UL8 915-1017): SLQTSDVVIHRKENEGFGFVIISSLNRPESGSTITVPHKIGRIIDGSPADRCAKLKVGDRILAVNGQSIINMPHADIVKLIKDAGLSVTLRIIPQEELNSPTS

pKd | Binder
below the threshold | B1
below the threshold | B2
below the threshold | B3
below the threshold | B4
below the threshold | B5

Biological target: Inadl_6, Q8NI35
Experiment: holdup assay
Design: key: below the threshold = too weak to quantify, mostly under pKd 3.1 to 4
Conditions: plain residues with an end cap or a label only (N-terminal biotin on a linker: ado-ado)

Inadl_6, Q8NI35, sequence (Q8NI35 1058-1167): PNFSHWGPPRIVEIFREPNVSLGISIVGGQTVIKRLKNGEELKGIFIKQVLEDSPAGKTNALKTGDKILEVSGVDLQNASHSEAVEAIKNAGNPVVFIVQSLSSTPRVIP

pKd | Binder
below the threshold | B1
below the threshold | B2
4.32 | B3
below the threshold | B4
below the threshold | B5

Biological target: T1, CARD11, Q9BXL7
Experiment: holdup assay
Design: key: below the threshold = too weak to quantify, mostly under pKd 3.1 to 4
Conditions: plain residues with an end cap or a label only (N-terminal biotin on a linker: ado-ado)

pKd | Binder
below the threshold | B1
below the threshold | B2
below the threshold | B3
below the threshold | B4
below the threshold | B5

Biological target: MAST1, Q9Y2H9
Experiment: holdup assay
Design: key: below the threshold = too weak to quantify, mostly under pKd 3.1 to 4
Conditions: plain residues with an end cap or a label only (N-terminal biotin on a linker: ado-ado)

MAST1, Q9Y2H9, sequence (Q9Y2H9 962-1065): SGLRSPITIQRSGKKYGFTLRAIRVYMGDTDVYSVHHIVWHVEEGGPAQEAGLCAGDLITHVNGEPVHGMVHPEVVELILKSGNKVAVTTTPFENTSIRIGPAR

pKd | Binder
3.65 | B1
3.63 | B2
4.96 | B3
below the threshold | B4
4.65 | B5

Biological target: T2, SIPA1L2, Q9P2F8
Experiment: holdup assay
Design: key: below the threshold = too weak to quantify, mostly under pKd 3.1 to 4
Conditions: plain residues with an end cap or a label only (N-terminal biotin on a linker: ado-ado)

pKd | Binder
below the threshold | B1
below the threshold | B2
below the threshold | B3
below the threshold | B4
below the threshold | B5

Biological target: T3, DLG3_1, Q92796
Experiment: holdup assay
Design: key: below the threshold = too weak to quantify, mostly under pKd 3.1 to 4
Conditions: plain residues with an end cap or a label only (N-terminal biotin on a linker: ado-ado)

pKd | Binder
below the threshold | B1
below the threshold | B2
below the threshold | B3
4.21 | B4
below the threshold | B5

Biological target: T4, SNTA1, Q13424
Experiment: holdup assay
Design: key: below the threshold = too weak to quantify, mostly under pKd 3.1 to 4
Conditions: plain residues with an end cap or a label only (N-terminal biotin on a linker: ado-ado)

pKd | Binder
below the threshold | B1
below the threshold | B2
below the threshold | B3
5.32 | B4
below the threshold | B5

Biological target: PDLIM1, O00151
Experiment: holdup assay
Design: key: below the threshold = too weak to quantify, mostly under pKd 3.1 to 4
Conditions: plain residues with an end cap or a label only (N-terminal biotin on a linker: ado-ado)

PDLIM1, O00151, sequence (O00151 1-87): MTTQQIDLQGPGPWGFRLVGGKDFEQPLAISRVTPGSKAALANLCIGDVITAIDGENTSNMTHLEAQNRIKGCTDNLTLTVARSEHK

pKd | Binder
below the threshold | B1
below the threshold | B2
below the threshold | B3
below the threshold | B4
below the threshold | B5

Biological target: Inadl_4, Q8NI35
Experiment: holdup assay
Design: key: below the threshold = too weak to quantify, mostly under pKd 3.1 to 4
Conditions: plain residues with an end cap or a label only (N-terminal biotin on a linker: ado-ado)

Inadl_4, Q8NI35, sequence (Q8NI35 547-651): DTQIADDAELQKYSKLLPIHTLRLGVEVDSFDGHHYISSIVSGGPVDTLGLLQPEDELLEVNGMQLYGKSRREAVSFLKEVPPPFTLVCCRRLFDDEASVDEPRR

pKd | Binder
below the threshold | B1
below the threshold | B2
below the threshold | B3
below the threshold | B4
below the threshold | B5

Biological target: GRID2IP_2, A4D2P6
Experiment: holdup assay
Design: key: below the threshold = too weak to quantify, mostly under pKd 3.1 to 4
Conditions: plain residues with an end cap or a label only (N-terminal biotin on a linker: ado-ado)

GRID2IP_2, A4D2P6, sequence (A4D2P6 272-370): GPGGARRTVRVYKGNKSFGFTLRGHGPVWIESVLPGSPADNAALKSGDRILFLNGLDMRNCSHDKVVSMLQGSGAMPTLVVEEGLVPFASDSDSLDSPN

pKd | Binder
below the threshold | B1
below the threshold | B2
below the threshold | B3
below the threshold | B4
4.37 | B5

Biological target: T5, GRIP1_5, Q9Y3R0
Experiment: holdup assay
Design: key: below the threshold = too weak to quantify, mostly under pKd 3.1 to 4
Conditions: plain residues with an end cap or a label only (N-terminal biotin on a linker: ado-ado)

pKd | Binder
below the threshold | B1
below the threshold | B2
below the threshold | B3
below the threshold | B4
below the threshold | B5

Biological target: T6, SYNJ2BP, P57105
Experiment: holdup assay
Design: key: below the threshold = too weak to quantify, mostly under pKd 3.1 to 4
Conditions: plain residues with an end cap or a label only (N-terminal biotin on a linker: ado-ado)

pKd | Binder
below the threshold | B1
below the threshold | B2
below the threshold | B3
4.36 | B4
3.76 | B5

Biological target: GRIP2_4, Q9C0E4
Experiment: holdup assay
Design: key: below the threshold = too weak to quantify, mostly under pKd 3.1 to 4
Conditions: plain residues with an end cap or a label only (N-terminal biotin on a linker: ado-ado)

GRIP2_4, Q9C0E4, sequence (Q9C0E4 446-548): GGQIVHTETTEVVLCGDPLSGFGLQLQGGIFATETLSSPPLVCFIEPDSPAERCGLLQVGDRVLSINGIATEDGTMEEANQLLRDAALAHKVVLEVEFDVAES

pKd | Binder
below the threshold | B1
below the threshold | B2
below the threshold | B3
below the threshold | B4
below the threshold | B5

Biological target: MAGI2_6, Q86UL8
Experiment: holdup assay
Design: key: below the threshold = too weak to quantify, mostly under pKd 3.1 to 4
Conditions: plain residues with an end cap or a label only (N-terminal biotin on a linker: ado-ado)

MAGI2_6, Q86UL8, sequence (Q86UL8 1141-1229): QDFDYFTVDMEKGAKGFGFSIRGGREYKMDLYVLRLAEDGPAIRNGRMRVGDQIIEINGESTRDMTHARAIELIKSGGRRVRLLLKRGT

pKd | Binder
3.51 | B1
below the threshold | B2
4.36 | B3
below the threshold | B4
below the threshold | B5

Biological target: DLG1_1, Q12959
Experiment: holdup assay
Design: key: below the threshold = too weak to quantify, mostly under pKd 3.1 to 4
Conditions: plain residues with an end cap or a label only (N-terminal biotin on a linker: ado-ado)

pKd | Binder
below the threshold | B1
below the threshold | B2
below the threshold | B3
4.83 | B4
below the threshold | B5

Biological target: T7, APBA3_1, O96018
Experiment: holdup assay
Design: key: below the threshold = too weak to quantify, mostly under pKd 3.1 to 4
Conditions: plain residues with an end cap or a label only (N-terminal biotin on a linker: ado-ado)

pKd | Binder
below the threshold | B1
below the threshold | B2
below the threshold | B3
below the threshold | B4
below the threshold | B5

Biological target: HTRA1, Q92743
Experiment: holdup assay
Design: key: below the threshold = too weak to quantify, mostly under pKd 3.1 to 4
Conditions: plain residues with an end cap or a label only (N-terminal biotin on a linker: ado-ado)

HTRA1, Q92743, sequence (Q92743 360-477): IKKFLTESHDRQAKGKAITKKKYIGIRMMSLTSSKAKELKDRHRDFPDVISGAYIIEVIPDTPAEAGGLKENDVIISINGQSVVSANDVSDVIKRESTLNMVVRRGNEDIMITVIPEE

pKd | Binder
below the threshold | B1
below the threshold | B2
5.01 | B3
4.13 | B4
below the threshold | B5

Biological target: SCRIB_2, Q14160
Experiment: holdup assay
Design: key: below the threshold = too weak to quantify, mostly under pKd 3.1 to 4
Conditions: plain residues with an end cap or a label only (N-terminal biotin on a linker: ado-ado)

SCRIB_2, Q14160, sequence (Q14160 857-960): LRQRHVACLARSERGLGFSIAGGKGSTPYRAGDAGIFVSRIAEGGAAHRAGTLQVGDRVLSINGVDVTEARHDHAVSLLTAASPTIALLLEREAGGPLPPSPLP

pKd | Binder
below the threshold | B1
below the threshold | B2
below the threshold | B3
below the threshold | B4
below the threshold | B5

Biological target: DLG5_1, Q8TDM6
Experiment: holdup assay
Design: key: below the threshold = too weak to quantify, mostly under pKd 3.1 to 4
Conditions: plain residues with an end cap or a label only (N-terminal biotin on a linker: ado-ado)

DLG5_1, Q8TDM6, sequence (Q8TDM6 617-713): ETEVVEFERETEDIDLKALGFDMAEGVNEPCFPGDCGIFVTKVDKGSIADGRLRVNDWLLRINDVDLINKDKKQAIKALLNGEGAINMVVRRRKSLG

pKd | Binder
below the threshold | B1
below the threshold | B2
below the threshold | B3
below the threshold | B4
below the threshold | B5

Biological target: T8, TJP3_3, O95049
Experiment: holdup assay
Design: key: below the threshold = too weak to quantify, mostly under pKd 3.1 to 4
Conditions: plain residues with an end cap or a label only (N-terminal biotin on a linker: ado-ado)

pKd | Binder
below the threshold | B1
below the threshold | B2
3.86 | B3
below the threshold | B4
below the threshold | B5

Biological target: T9, SHANK1, Q9Y566
Experiment: holdup assay
Design: key: below the threshold = too weak to quantify, mostly under pKd 3.1 to 4
Conditions: plain residues with an end cap or a label only (N-terminal biotin on a linker: ado-ado)

pKd | Binder
below the threshold | B1
3.49 | B2
4.14 | B3
below the threshold | B4
4.09 | B5

Biological target: T10, APBA2_2, Q99767
Experiment: holdup assay
Design: key: below the threshold = too weak to quantify, mostly under pKd 3.1 to 4
Conditions: plain residues with an end cap or a label only (N-terminal biotin on a linker: ado-ado)

pKd | Binder
below the threshold | B1
below the threshold | B2
below the threshold | B3
below the threshold | B4
below the threshold | B5

Biological target: T11, SNTB1, Q13884
Experiment: holdup assay
Design: key: below the threshold = too weak to quantify, mostly under pKd 3.1 to 4
Conditions: plain residues with an end cap or a label only (N-terminal biotin on a linker: ado-ado)

pKd | Binder
below the threshold | B1
below the threshold | B2
below the threshold | B3
5 | B4
below the threshold | B5

Biological target: T12, PDZD7_3, Q9H5P4
Experiment: holdup assay
Design: key: below the threshold = too weak to quantify, mostly under pKd 3.1 to 4
Conditions: plain residues with an end cap or a label only (N-terminal biotin on a linker: ado-ado)

pKd | Binder
below the threshold | B1
below the threshold | B2
below the threshold | B3
4.63 | B4
4.09 | B5

Biological target: T13, DVL3, Q92997
Experiment: holdup assay
Design: key: below the threshold = too weak to quantify, mostly under pKd 3.1 to 4
Conditions: plain residues with an end cap or a label only (N-terminal biotin on a linker: ado-ado)

pKd | Binder
below the threshold | B1
below the threshold | B2
3.65 | B3
below the threshold | B4
below the threshold | B5
